Measurements reported in US20090111753A1, “Nogo-A Polypeptide Fragments, Variant Nogo Receptor-1 Polypeptides, and Uses Thereof” (Yale University, priority 2004, published 2009).
Residue numbers refer to the chain shown, from its start. Names may count otherwise. One block for each molecule: values may come before it.

Columns and labels:
[1] = target: T1, human NgR1 alanine mutant 232, 234 (human, UniProt Q9BZR6 27-473); experiment: AP-ligand binding, COS-7
T1 sequence: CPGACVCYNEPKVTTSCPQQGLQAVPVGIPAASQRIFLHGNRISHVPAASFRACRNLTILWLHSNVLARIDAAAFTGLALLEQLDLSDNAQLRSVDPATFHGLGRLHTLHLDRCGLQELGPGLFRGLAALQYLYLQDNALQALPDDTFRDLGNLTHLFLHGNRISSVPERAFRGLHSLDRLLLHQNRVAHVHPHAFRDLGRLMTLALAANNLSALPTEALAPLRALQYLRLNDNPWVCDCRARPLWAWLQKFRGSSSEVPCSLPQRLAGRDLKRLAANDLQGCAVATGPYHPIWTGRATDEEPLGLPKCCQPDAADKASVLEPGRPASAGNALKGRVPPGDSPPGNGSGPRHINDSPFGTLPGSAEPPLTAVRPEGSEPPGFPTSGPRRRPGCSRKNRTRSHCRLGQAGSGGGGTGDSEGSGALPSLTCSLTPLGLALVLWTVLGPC

[2] = target: T2, human NgR1 alanine mutant 182, 186 (human, UniProt Q9BZR6 27-473); experiment: AP-ligand binding, COS-7
T2 sequence: T1 sequence with H156A, H160A, A206Y, A208F

[3] = target: T3, human NgR1 alanine mutant 133, 136 (human, UniProt Q9BZR6 27-473); experiment: AP-ligand binding, COS-7
T3 sequence: T1 sequence with H107A, H110A, A206Y, A208F

[4] = target: T4, human NgR1 alanine mutant 82, 179 (human, UniProt Q9BZR6 27-473); experiment: AP-ligand binding, COS-7
T4 sequence: T1 sequence with N56A, N153A, A206Y, A208F

[5] = target: T5, human NgR1 alanine mutant 163 (human, UniProt Q9BZR6 27-473); experiment: AP-ligand binding, COS-7
T5 sequence: T1 sequence with D137A, A206Y, A208F

[6] = target: T6, human NgR1 alanine mutant 158, 160 (human, UniProt Q9BZR6 27-473); experiment: AP-ligand binding, COS-7
T6 sequence: T1 sequence with Y132A, Y134A, A206Y, A208F

E13 chick DRG neurons = experiment: cDRG neurite outgrowth assay; type: cell-based; details: substrate coated with GST fusion protein
Protocol: FIG. 2D. Differential effects of Amino-Nogo fragments on neurite outgrowth. Dissociated neurons from E13 chick DRGs were plated on 96 well dishes coated with lpmol protein per well and stained for neurofilament localization.
FIG. 2E. Neurite length per neuron were measured and plotted as percentage of PBS control with increasing concentration of dried protein for experiment described in […].
FIG. 6C. B24/32 peptide inhibits neurite outgrowth. Dissociated neurons from E13 chick DRG were plated onto 96 well dishes coated with 500 pmol of dried peptides as indicated and stained for neurofilament localization.
FIG. 6D. Neurite length per neuron was measured and plotted as percentage of PBS control for experiments as in (C).
(§1) It has been recognized that the Amino-Nogo-A protein inhibits non-neuronal cell spreading and axonal outgrowth when the protein is substrate bound (Chen, M. S., et al., Nature 403:434-439 (2000); Fournier, A. E., et al., Nature 409:341-346 (2001)). […] The later domain has been termed Δ20. To determine whether the NgR-interacting aa of Amino-Nogo-A described in Example 1 regulate cell spreading and axonal outgrowth, various fragments were expressed as GST fusion proteins and purified from E. coli. To generate GST fusion proteins, amino Nogo fragments were cloned in pGEX2T (Amersham Pharmacia). Native and soluble GST fusion proteins were expressed and purified as described (GrandPre, T., et al., Nature 403:439-444 (2000)). COS-7 binding assays were done as described (Fournier, A. E., et al., Nature 409:341-346 (2001)). Bound AP to COS-7 cells was measured using NIH image software. Fibroblast spreading and cDRG outgrowth assay were done as described (Fournier, A. E., et al., Nature 409:341-346 (2001)) with some modifications. Briefly, 50 μl of purified GST fusion protein or peptides diluted in PBS was pipetted into polylysine precoated 96 well plates (Becton Dickson Biocoat plates) and dried overnight at room temperature. For fibroblast spreading assay, subconfluent COS-7 cells were then plated for 1 hour in serum containing medium before fixation and staining with rho damine-phalloidin.
The same GST-Amino-Nogo proteins were tested for their ability to reduce neurite outgrowth from chick E13 DRG neurons. For cDRG outgrowth assay, dissociated E13 cDRG neurons were plated for 6 hours before fixation. […] Cell area, number of attached cells and neurite length were measured using the Imageexpress machine and software (Axon Instrument).
We reasoned that fusing the 24 aa segment of Amino-Nogo-A to NEP32 antagonist peptide might create a high affinity antagonist with a potency similar to the binding of AP-B4C-66 to NgR. […] Cell area, number of attached cells and neurite length were measured using the linageexpress machine and software (Axon Instrument).

COS-7 cells = experiment: Fibroblast spreading assay on dried GST fusion protein; type: cell-based; details: GST fusion protein presented as dried substrate
Protocol: FIG. 2A. Effects of Amino-Nogo fragments on fibroblast spreading and neurite outgrowth. Different effects of Amino-Nogo fragments on fibroblast spreading. COS-7 cells were allowed to attach and spread on slides with spots coated with 50 ng of dried GST fusion protein as indicated and stained for F-actin. GST-A: fusion protein of GST and A fragment (FIG. 1) of Amino-Nogo. GST-A, GST-B, GST-Δ20, GST-B4 and GST-B4C: fusion protein of GST and A, B, Δ20, B4 or B4C fragment (FIG. 1) of Amino-Nogo, respectively.
FIG. 2B. COS-7 cell area for experiments as in (A) was measured and plotted.
FIG. 2C. COS-7 cells were allowed to attach and spread on 96 well dishes coated with dried GST fusion proteins as indicated. Number of attached cells were counted and plotted as a function of the amount of various proteins dried per well in a 96 well dish.
as §1, with “For fibroblast spreading assay, subconfluent COS-7 cells were then plated for 1 hour in serum containing medium before fixation and staining with rho damine-phalloidin.” left out

binding result [1]: no binding
binding result [2]: no binding
binding result [3]: no binding
binding result [4]: no binding
binding result [5]: no binding
binding result [6]: no binding
B1: AP-Nogo-66 (ligand, UniProt Q9NQC3 1055-1120, looked up)
chain: RIYKGVIQAIQKSDEGHPFRAYLESEVAISEELVQKYSNSALGHVNCTIKELRRLFLVDDLVDSLK
notes: domain: Nogo-66; construct described elsewhere (Fournier 2001); also called AP-Ng66; Ng66; not shown: alkaline phosphatase (AP); construct described elsewhere

B2: B4: fusion protein of GST and B4 fragment (carboxyl terminal 150 aa) of Amino-Nogo (protein)
chain: SKTDSFSKLAREYTDLEVSHKSEIANAPDGAGSLPCTELPHDLSLKNIQPKVEEKISFSDDFSKNGSATSKVLLLPPDVSALATQAEIESIVKPKVLVKEAEKKLPSDTEKEDRSPSAIFSAELSKTSVVDLLYWRDIKKTG
modifications: left off: a dimerising Fc or GST
notes: fusion protein of GST and B4 fragment (carboxyl terminal 150 aa) of Amino-Nogo
neurite outgrowth from chick E13 DRG neurons (E13 chick DRG neurons): not inhibitory for axonal growth
COS-7 cell attachment and spreading (COS-7 cells): do not alter COS-7 morphology

binding result [1]: no binding
binding result [2]: no binding
binding result [3]: no binding
binding result [4]: no binding
binding result [5]: no binding
binding result [6]: no binding
B3: AP-fused Amino-Nogo fragment B4C (a.a. 950-1018) (ligand)
chain: LLPPDVSALATQAEIESIVKPKVLVKEAEKKLPSDTEKEDRSPSAIFSAELSKTSVVDLLYWRDIKKTG
notes: also called AmNg B4C; AP-B4C; not shown: alkaline phosphatase (AP), vector pcAP6

B4: B fragment of Amino-Nogo: fusion protein of GST and B fragment of Amino-Nogo (protein, UniProt Q9NQC3 622-1018, looked up, fragment)
chain: SAVPSAGASVIQPSSSPLEASSVNYESIKHEPENPPPYEEAMSVSLKKVSGIKEEIKEPENINAALQETEAPYISIACDLIKETKLSAEPAPDFSDYSEMAKVEQPVPDHSELVEDSSPDSEPVDLFSDDSIPDVPQKQDETVMLVKESLTETSFESMIEYENKEKLSALPPEGGKPYLESFKLSLDNTKDTLLPDEVSTLSKKEKIPLQMEELSTAVYSNDDLFISKEAQIRETETFSDSSPIEIIDEFPTLISSKTDSFSKLAREYTDLEVSHKSEIANAPDGAGSLPCTELPHDLSLKNIQPKVEEKISFSDDFSKNGSATSKVLLLPPDVSALATQAEIESIVKPKVLVKEAEKKLPSDTEKEDRSPSAIFSAELSKTSVVDLLYWRDIKKTG
modifications: GST fusion
COS-7 cell attachment and spreading (COS-7 cells): active
